Source: patent US20080214468A1 (UNIVERSITY OF VIRGINIA PATENT FOUNDATION, published 2008)
Where no end group is shown, it is not given here.

Molecular target: Vimentin from bovine aortic endothelial cells (bovine, UniProt P48616 2-466)
Assay: affinity chromatography of BAEC cell fractions on immobilized peptide
Description: Membrane and cytosol fractions from human bone marrow endothelial cells and bovine aortic endothelial cells were prepared and used to identify the components from within these fractions that bind to the peptides using affinity chromatography). […] Cell surface nucleolin is present at higher concentrations in actively dividing cells and is down regulated in cells when they become quiescent. Nucleolin is the apparent cell surface receptor of E-coli intimin-gamma. Cell bound intimin has been proposed to trigger a host cell response similar to the extension of filipodia when cells bind to laminin. […] Table 3 provides a summary of peptide-binding partners (putative receptors) identified by affinity chromatography of cell lysates.

Sequence of Vimentin from bovine aortic endothelial cells (P48616 2-466 limits assumed): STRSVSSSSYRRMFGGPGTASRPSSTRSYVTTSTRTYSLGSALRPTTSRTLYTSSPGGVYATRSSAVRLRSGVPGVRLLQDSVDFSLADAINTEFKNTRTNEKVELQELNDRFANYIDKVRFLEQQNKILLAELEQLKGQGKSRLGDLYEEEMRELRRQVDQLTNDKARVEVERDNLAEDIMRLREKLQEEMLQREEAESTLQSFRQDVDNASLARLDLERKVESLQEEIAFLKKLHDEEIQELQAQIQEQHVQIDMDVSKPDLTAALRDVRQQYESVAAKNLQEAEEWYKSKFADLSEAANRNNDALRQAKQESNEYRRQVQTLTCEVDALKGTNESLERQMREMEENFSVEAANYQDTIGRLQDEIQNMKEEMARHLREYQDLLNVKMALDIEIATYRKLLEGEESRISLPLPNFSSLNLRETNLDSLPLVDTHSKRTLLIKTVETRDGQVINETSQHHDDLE

Row | Binder | binding result
1 | SYSQMDPPRSLPGGGS (also: biotinylated, position not given here, 12-mer with the C-terminal GGGS linker) [peptide R8 (SEQ ID NO:14)] | binds
2 | QRSWTLDSALSMGGGS (also: biotinylated, position not given here, 12-mer with the C-terminal GGGS linker) [peptide L12 (SEQ ID NO:7)] | binds
